From patent publication US20070123452A1, “Method of selecting novel immunosuppressant” (Astellas Pharma Inc., priority 2002, published 2007)

Columns and labels:
[1] = tested on: IL-2 transcription (human IL-2 promoter); assay: IL-2 reporter gene assay in Jurkat cells; type: cell-based
Protocol: To 1 μg of the plasmid pGL3 IL2 Pro43, which has a human IL-2 promoter sequence (the −674 to +54 region in the vicinity of the transcription initiation site) upstream of the firefly luciferase gene, and 6 μg of pRL-TK (Promega), the plasmids for the expression of wild-type HDAC4 or each of HDAC4 dominant negative variants (H802K, H803L, H863L) prepared in Example 3 was mixed in various ratios (1, 3 and 10 μg), and 1×10^7 Jurkat cells (ATCC, TIB-152) were transformed by the electroporation method (BIO-RAD, Gene Pulser II, voltage 300 V, charge 975 μF, 400 μL).
After transformation, 2.5 mL of RPMI 1640 containing 10% FBS (MOREGATE) (10% FBS RPMI 1640) was added, and this mixture was dispensed to a 96-well white plate in a ratio of 50 μL/well. After cultivation under conditions of 37° C., 5% CO2 and saturated humidity for 10 hours, a liquid mixture of Phorbol 12-Myristate 13-Acetate (PMA, SIGMA), Ionomycin (SIGMA) and Anti-CD28 antibody (Pharmingen) in 10% FBS RPMI 1640 was added at 50 μL/well (the final concentrations were 50 ng/mL, 1 μg/mL and 75 ng/mL, respectively) to stimulate the Jurkat cells. After cultivation under conditions of 37° C., 5% CO2 and saturated humidity for 12 hours, luciferase activity in the cells was measured according to the manual of the Bright-Glo Luciferase Assay System (Promega) using a multi-label counter (1420 MULTILABEL COUNTER ARVO SX, WALLAC).
1×10^7 Jurkat cells (ATCC, TIB-152) were transformed with 10 μg of a plasmid for the expression of various HDACs or HDAC variants by the electroporation method (BIO-RAD, Gene Pulser II, voltage 300 V, charge 975 μF, 400 μL). […] After cultivation under conditions of 37° C., 5% CO2 and saturated humidity for 12 hours, luciferase activity in cells were measured according to the manual of the Bright-Glo Luciferase Assay System (Promega), and IL-2 transcriptional activity was measured using a multi-label counter (1420 MULTILABEL COUNTER ARVO SX, WALLAC).
A mixture of four kinds of HDAC4-targeted siRNA, i.e., siGENE HDAC4 SMARTpool (manufactured by Dharmacon Inc., marketed by B-Bridge international Inc., code number M-003497-00-05), or Non-specific Control Duplex IX (47% GC content) (manufactured by Dharmacon Inc., marketed by B-Bride international Inc., code number D-001206-09-20), and pGL3 IL2 Pro43 were transfected to Jurkat cells by the electroporation method using the same conditions as those mentioned above, and IL-2 transcriptional activity was measured. Likewise, siGENE HDAC4 SMARTpool or Non-specific Control Duplex IX, and pGL3-HSI-IE Pro were transfected to HEL cells, and GATA-1 transcriptional activity was measured. […]

[2] = tested on: Jurkat cells; assay: Cell proliferation, Cell Counting Kit-8; type: cell-based, human; conditions: 10 μg expression plasmid; Jurkat cells versus HEL cells and 293 cells
Protocol: 10 μg of a plasmid for the expression of wild-type HDAC4 and the HDAC4 dominant negative variant (H863L) prepared in Example 6 was transfected to Jurkat cells, HEL cells and 293 cells.
1×10^7 Jurkat cells (ATCC, TIB-152) were transformed by the electroporation method (BIO-RAD, Gene Pulser II, voltage 300 V, charge 975 μF, 400 μL). After transformation, 2.5 mL of RPMI 1640 containing 10% FBS (MOREGATE) (10% FBS RPMI 1640) was added, and this mixture was dispensed to a 96-well white plate in a ratio of 50 μL/well. After cultivation under conditions of 37° C., 5% CO2 and saturated humidity for 5 hours, a liquid mixture of Phorbol 12-Myristate 13-Acetate (PMA, SIGMA), Ionomycin (SIGMA) and Anti-CD28 antibody (Pharmingen) in 10% FBS RPMI 1640 was added at 50 μL/well (the final concentrations were 50 ng/mL, 1 μg/mL and 75 ng/mL, respectively) to stimulate the Jurkat cells. After cultivation under conditions of 37° C., 5% CO2 and saturated humidity for 4 hours, the number of cell was confirmed using the Cell Counting Kit-8 (DOJIN) 8.75×10^6 HEL cells (accession number JCRBOO62, JCRB) were transformed by the electroporation method (BIO-RAD, Gene Pulser II, voltage 1750 V, charge 10 μF, 365 μL). After transformation, 2 mL of 10% FBS RPMI 1640 was added, and this mixture was dispensed to a 96-well white plate in a ratio of 50 μL/well. […]

[3] = tested on: N-CoR and HDAC3; assay: Complex forming ability, anti-Flag purification and Western blotting; type: binding, human; conditions: expressed in PEAK Rapid cells; compared to wild-type HDAC4

B1: HDAC4 dominant negative variant (H863L): HDAC4 variant with H863L mutation, amino acid sequence SEQ ID NO:6, expressed from plasmid (protein, listed as Homo sapiens)
chain: MSSQSHPDGLSGRDQPVELLNPARVNHMPSTVDVATALPLQVAPSAVPMDLRLDHQFSLPVAEPALREQQLQQELLALKQKQQIQRQILIAEFQRQHEQLSRQHEAQLHEHIKQQQEMLAMKHQQELLEHQRKLERHRQEQELEKQHREQKLQQLKNKEKGKESAVASTEVKMKLQEFVLNKKKALAHRNLNHCISSDPRYWYGKTQHSSLDQSSPPQSGVSTSYNHPVLGMYDAKDDFPLRKTASEPNLKLRSRLKQKVAERRSSPLLRRKDGPVVTALKKRPLDVTDSACSSAPGSGPSSPNNSSGSVSAENGIAPAVPSIPAETSLAHRLVAREGSAAPLPLYTSPSLPNITLGLPATGPSAGTAGQQDTERLTLPALQQRLSLFPGTHLTPYLSTSPLERDGGAAHSPLLQHMVLLEQPPAQAPLVTGLGALPLHAQSLVGADRVSPSIHKLRQHRPLGRTQSAPLPQNAQALQHLVIQQQHQQFLEKHKQQFQQQQLQMNKIIPKPSEPARQPESHPEETEEELREHQALLDEPYLDRLPGQKEAHAQAGVQVKQEPIESDEEEAEPPREVEPGQRQPSEQELLFRQQALLLEQQRIHQLRNYQASMEAAGIPVSFGGHRPLSRAQSSPASATFPVSVQEPPTKPRFTTGLVYDTLMLKHQCTCGSSSSHPEHAGRIQSIWSRLQETGLRGKCECIRGRKATLEELQTVHSEAHTLLYGTNPLNRQKLDSKKLLGSLASVFVRLPCGGVGVDSDTIWNEVHSAGAARLAVGCVVELVFKVATGELKNGFAVVRPPGHHAEESTPMGFCYFNSVAVAAKLLQQRLSVSKILIVDWDVHHGNGTQQAFYSDPSVLYMSLLRYDDGNFFPGSGAPDEVGTGPGVGFNVNMAFTGGLDPPMGDAEYLAAFRTVVMPIASEFAPDVVLVSSGFDAVEGHPTPLGGYNLSARCFGYLTKQLMGLAGGRIVLALEGGHDLTAICDASEACVSALLGNELDPLPEKVLQQRPNANAVRSMEKVMEIHSKYWRCLQRTTSTAGRSLIEAQTCENEEAETVTAMASLSVGVKPAEKRPDEEPMEEEPPL
modifications: Dominant negative mutant (H863L) of human histone deacetylase-4 (HDAC4) gene
IL-2 transcriptional activity (luciferase) ([1]; Jurkat cells stimulated with PMA, Ionomycin, Anti-CD28 antibody, expression plasmid 1, 3 and 10 μg): IL-2 transcription suppression depending on the expression level | IL-2 transcriptional activity (luciferase) ([1]; Jurkat cells, 10 μg expression plasmid, compared with HDAC1 and HDAC3 variants): IL-2 transcription suppression was observed | cell proliferation (number of cells) [2]: cell proliferation inhibition specific for Jurkat cells | HDAC3 and N-CoR in the crudely purified fraction (complex forming ability) [3]: contained almost no HDAC3 or N-COR
